Results from patent US6709650B1, “Spray-dried microparticles and their use as therapeutic vehicles” (Elam Drug Delivery Limited, priority 1991, dated 2004).

Tests used:
[1] = molecular target: T1, trypsin (Bos taurus, UniProt P00760); assay: Trypsin inhibitory activity of spray-dried alpha-1 antitrypsin vs freeze dried starting material; assay type: biochemical; details: within the experimental error
T1 construct: gene PRSS1
T1 sequence (P00760 24-246): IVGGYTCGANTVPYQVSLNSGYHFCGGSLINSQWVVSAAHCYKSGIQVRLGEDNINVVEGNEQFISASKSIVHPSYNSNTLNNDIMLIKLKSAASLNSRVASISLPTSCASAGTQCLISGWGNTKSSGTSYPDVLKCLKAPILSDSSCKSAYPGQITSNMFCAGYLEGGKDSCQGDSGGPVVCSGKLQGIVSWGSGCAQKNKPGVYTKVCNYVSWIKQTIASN
Description: (§1) Alpha-1 antitrypsin derived from human serum was spray-dried under conditions similar to Example 1 with an inlet temperature of 150° C. and an outlet temperature of 80° C. In all other respects the conditions for drying were the same as Example 1. […] The microparticles were dissolved in aqueous medium and analysed for retention of protein structure and normal trypsin inhibitory activity, then compared to the original freeze dried starting material.

[2] = Structural integrity of protein after spray-drying (gel filtration, tryptic peptide mapping, reverse phase, capillary electrophoresis); assay type: physicochemical; details: microparticles dissolved in aqueous medium, compared with original material
Description: Under the conditions described, with a nozzle pressure of 7.5 bar, microparticles were produced with a particle size of 4.7 μm. These soluble microparticles were smooth and spherical with less than 1% of the particles over a particle size of 6 μm. The microparticles were dissolved in aqueous medium and the molecular weight of the HSA determined by gel filtration chromatography. The resultant chromatograms for the original and spray-dried HSA are shown (FIG. 1).
as §1

[3] = soluble HSA microcapsules dissolved in water or extracted; TLC or HPLC

| Molecule | retention of inhibitory activity after spray-drying [1] | structural change of the protein after spray-drying [2] | state of the active compound on dissolution of the microcapsules [3] |
| --- | --- | --- | --- |
| Alpha-1 antitrypsin: Alpha-1 antitrypsin derived from human serum, spray-dried to soluble microparticles of mean size 4.5 μm | full retention of inhibitory activity | no significant structural changes | – |
| C[C@H]1C[C@H]2[C@@H]3CCC4=CC(=O)C=C[C@]4(C)[C@@]3(Cl)[C@@H](O)C[C@]2(C)[C@@]1(O)C(=O)CO [beclomethasone] | – | – | majority of the active compound was in the free state |
